Data as given in article PMC9084892, “Von Willebrand factor A1 domain stability and affinity for GPIbα are differentially regulated by its O-glycosylated N- and C-linker” (eLife, 2022).
Blank lines part the entries; values can stand above or below the molecule they belong to.

What was measured:
GPIbα (Homo sapiens) = GPIbα (Homo sapiens) (UniProt P07359); conditions: cited from earlier work
[1] = molecular target: T1, VWF A1 domain construct A1 short (residues 1264-1469) (human, UniProt P04275 1264-1469); test: BLI; biotinylated GPIbα on streptavidin sensors, A1 constructs as analyte; 20 mM HEPES pH 7.5, 0.02% Tween-20, 150 mM NaCl; global fit to a single kon and koff; Octet RED384; conditions: both partners purified
T1 construct: von Willebrand factor, human, A1 domain without the N- and C-linkers, residues 1264-1469, pre-pro-VWF numbering; Both the mammalian and the bacterial methods allow a 1264-1469 construct; If it was made in E. coli, it carried an N-terminal thioredoxin that was cut off with TEV protease; Long-range disulfide Cys1272-Cys1458 is present; source: purified (Ni-NTA, Superdex 200), gel filtered again on …

[2] = molecular target: T2, VWF A1 domain construct A1+OGly+N+C (residues 1238-1489, O-glycosylated) (human, UniProt P04275 1238-1489, O-glycosylated N- and C-linkers); test: as above; conditions: both partners purified
T2 construct: von Willebrand factor, human, A1 domain with the N- and C-linkers, residues 1238-1489, pre-pro-VWF numbering; It extends three residues beyond the bacterial A1+N+C so as to include the O-glycosylated residues Ser-1486 and Thr-1487; also called A1NC

[3] = molecular target: T1, VWF A1 domain construct A1 short …; test: ITC; GPIbα (250 uM; 550 uM with A1+OGly+N+C) titrated into A1 (22 uM; 50 uM with A1+OGly+N+C); 150 mM NaCl, 20 mM Tris-HCl pH 7.5, 22°C; MicroCal iTC200; conditions: both partners purified

Molecule: von Willebrand factor A1 (tethered, high-affinity state) (from UniProt P04275)
Kd (GPIbα (Homo sapiens)): 0.08 µM

Kd [1]: 0.18 µM | Kd [2]: 9.2 µM
B1: Wild-type GPIbα, residues 1-290 of the mature protein, with biotinylated Avi-tag and His6 tag (domain or fragment)
chain: HPICEVSKVASHLEVNCDKRNLTALPPDLPKDTTILHLSENLLYTFSLATLMPYTRLTQLNLDRCELTKLQVDGTLPVLGTLDLSHNQLQSLPLLGQTLPALTVLDVSFNRLTSLPLGALRGLGELQELYLKGNELKTLPPGLLTPTPKLEKLSLANNNLTELPAGLLNGLENLDTLLLQENSLYTIPKGFFGSHLLPFAFLHGNPWLCNCEILYFRRWLQDNAENVYVWKQGVDVKAMTSNVASVQCDNSDKFPVYKYPGKGCPTLGDEGDTDLYDYYPEEDTEGDKVR
modifications: biotin on the Avi-tag

fold higher affinity of A1 short than of A1+OGly+N+C [3]: 39 fold
B2: Wild-type GPIbα, residues 1-290 of the mature protein, with His6 tag (no Avi-tag) (domain or fragment)
chain: B1 chain
modifications: Mature 1-290 = precursor 17-306 (signal peptide 1-16). The His6 tag is left out; no Avi-tag or biotin. Expressed in HEK293, so glycosylated and disulfide-bonded.
